Measured values as given in the RNAGym collection of RNA variant scans (doi:10.1073/pnas.2313332121).

B1: TPR t1 (parent)
chain: GACCAAUCUGCCCUCAGAGCUCGAGAACAUCUUCGGAUGCAGAGGAGGCAGGCUUCGGUGGCGCGAUAGCGCCAACGUCCUCAACCUCCAAUGCAUCCCACCACAUGAUGAUGCCUGAAGAGCCUUGGUUUUUUG

Variants of: B1
Test: polymerase ribozyme fitness, log enrichment relative to wild type (log ratio); higher = more active; in vitro selection for triplet polymerase activity
Procedure, shortened: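 Mutant libraries of both subunits of a heterodimeric triplet polymerase ribozyme were PCR-built, transcribed, and selected once in triplicate, with frozen incubation at −7 °C and capture of gel-excised extended constructs on streptavidin beads before RT-PCR. Illumina sequencing of input and output libraries was filtered to genotypes with ≥10 input reads and ≥1 read per output. Fitness is the logarithm of genotype enrichment over wild-type enrichment, using inverse-variance-weighted replicate averages. The logarithm is base 2.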

| Variant | polymerase ribozyme fitness (log ratio) |
| --- | --- |
| GACCAAUCUACCCUGAGAGCUCGAGAACAUCUUCGGAUGCAGAGGAGGCAGGCUUCGGUGUCGCGAUAGCGCCAACGUCCUCAACCUCCAAUGCAUCCCACCACAUGAUGAUGCCUGAAGAGCCUUGGUUUUUUG [G10A C15G G61U] | -3.16 |
| GACCAAUCUACGCUCAGAGCUGGAGAACAUCUUCGGAUGCAGAGGAGGCAGGCUUCGGUGGCGCGAUAGCGCCAACGUCCUCAACCUCCAAUGCAUCCCACCAGAUGAUGAUGCCUGAAGAGCCUUGGUUUUUUG [G10A C12G C22G C104G] | -5.13 |
| GACCAAUCUACCCUCAGAGCUCGAGAACAUCUUCGGUUGCAGAGGAGGCAGGCUUCGGUGGCGCGAUAGCGACAACCUCCUCAACCUCCAAUGCAUCCCACCACAUGAUGAUAUCGGAAGAGCCUUGAUUUUUUG [G10A A37U C72A G77C G113A C114U U116G G128A] | -7.17 |
| GACCAAUCGGCCCUCAGAGCUCGAGAACACCUUCGGAUGCAGAGGAGGCAGGCUUCGGUGGCGCGAUAGCGCCAACGUCCUCAACCUCCAAUGCAUCCCACCACAUGAUGAUGCCUGAACAGCCUUAGUUUUUUG [U9G U30C G120C G127A] | -3.41 |
| GACCAAUCUACUCUCAGAUCUCGAGAACAUCUUCGGAUGCAGAGGAGGCAGGCUUCGGUGGCGCGAUAGCGCCAACGUCCUCAAUCUCCAAUGCAUCCCACCACAUGAUGAUGCCUGAAGAGUCUUGGUUUUUUG [G10A C12U G19U C85U C123U] | -1.68 |
| GACCAAUCUACCCUCAGAGCUCGAGAACAUCUUCGGAUGCAGAGGAGGCAGGCUUCGGUGGCGCGAUAGCGCCAACGUCCUCAACCUCCAAUGCUUCCCACCACAUGAUGAUGCCUGAAGAACCUUGGUUUUUUG [G10A A95U G122A] | 0.0165 |
| GACCAAUCUACCCUCAGAGCUCGAGAACCUCUUCGGAUACAGAGGAGGCAGGCUUCGGUGGCGCGAUAUCGCCAACGUCCUCAACCUCCAAUGCAUCCCACCACAUGAUGAUGCCUGAAGAGCCUUGGUUUUUUG [G10A A29C G39A G69U] | -2.05 |
| GACCAAUCUACCCUCAGAGAUCGAGAACAUCUUCGGAUGCAGAGGAGGCAGGCUUCGGUGGCGCGAUAGCGCCAACGUCCUCAACCACCAAUGCAUCCCACCACAUGAUGAUGCCUGAAGAGCUUUGGUUUUUUG [G10A C20A U87A C124U] | -0.469 |
| GACCAAUCGGCCCUCAGAGCACGAGAACAUCUUCGGAUGCAGAGGAGGCAGGCUUCGGUGGCGCGAUAGCGCCAACGUCCUCAACCUCCAAUGCAUACCACCACAUGAUGAUGCCUGAAGAGCCUUGGUUUUUUG [U9G U21A C97A] | -4.03 |
| GACCAAUCUACCCUCAGAGCUCGAGGACAUCUUCGGAUGCAGAGGAGGCAGGCUUCGGUGGCGCGAUAGCGCCAACGUCCUCAACCUCCAAUGCAUCCCACCUAAUGAUGAUGCCUGAAGCGCCUUGGUUUUUUG [G10A A26G A103U C104A A121C] | -0.666 |
| GACCAAUCGGCCCUCAGAGCUCGAGAACAUCUUCGGAUGCAGAGGAGGCAGGCUUCGGUGGCGCGAUAGCGCCAACGUCCUCAACCUCCAAUGCAGCCCACCACAUGAUGAUGCCUGAAGAGCCUUGGUUUUUUG [U9G U96G] | -0.204 |
| GACCAAUCUACCCUCAGAGCUCGAGAACAUCUUAGGAUGCAGAGGAGGCAGGCUUCGGUGGCGCGAUAGCGCCAACGUCCUCAACCUCCAAUGCAUCCCACCACAUGAUGAUGCCUGAAGAGCCUUGGUUUUUUG [G10A C34A] | -2.87 |
| GACCAAUCUACCCUCAGAGCUCGAGAACAUCUUCGGAUGCAGAGGAGGCAGGCUUGGGUGGCGCGAUAGCGCCAACGUCCUCAACCUCCAAUGCAUCCCACCACAUGAUGAUGCCUAAAGAGCCUUGGUUUUUUG [G10A C56G G117A] | -3.95 |
| GACCAAUCUACCCUCAGAGCUCGAGAACCUCUUCGGAUGCAGAGGAGGCAGGCUUCGGUGGCGCGAUAGCGCCAACGUCCUCAACCUCCAAUGCAUCCCACCACAUGAUGAUGCCUGAAGAGCCUUGGUUUUUUG [G10A A29C] | -1.99 |
| GACCAAUCUACCCUCAGAGCUCGAGAAGAUCUUCGGAUGCAGAGGAGGCAGGCUUCGGUGGCGCGAUAGCGCCAACGUCCUCAACCUCCAAUGCAUCCCACCACAAGAUGAUGCCUGAAGAGCCUUUCUUUUUUG [G10A C28G U106A G127U G128C] | -3.76 |
| GACCAAUCUACCUUCAGAGCUCGAGAACAGCUUCGGAUGCAGAGGCGGCAGGCUUCGGUGGCGCGAUAGCGUCAACGUCCUCAACCUCCAAUGCAUCCCACCACAUGAUGAUGCCUGAAGAGGCUUGGUUUUUUG [G10A C13U U30G A46C C72U C123G] | -6.25 |
| GACCAAUCUACCCUCAGAGCUCGAGAUCAUCUUCGGAUGCAAAGGAGGCAGGCUUCGGUGGCGCGAUAGUGCCAACGUCCUCAACCUCCAAUGCAUCCAACCACAUGAUGAUGCCUGAAGAGCCUUGGUUUUUUG [G10A A27U G42A C70U C99A] | -6.56 |
| GACCAAUCUACCCUCAGAGCUCGAGAACAUCUUCGGAUGCAGAGGAGGCAGGCUUCGGUGGCGCGAUAGCGCCAACGUCCUCAACCUCCCAUGCAUCCCACCACAUGAUGAUGCCUGAAGCGCCUUGGUUUUUUG [G10A A90C A121C] | 0.254 |
| GACCAAUCUACCCUCAGAGCUCGAGAACAUCUUCGGAUGAAGAGGAGGCAGGCUUCGGUGGCGCGAUAGCGACAACGUCCUCAACCUCCAAUGCAUCCCACCACAUGAUGCUGCCUGAAGAGCCUUGGUUUUUUG [G10A C40A C72A A111C] | -1.19 |
| GACCAAUCUACCCUCAGAGCUCGAGAACAUCUUCGGAUGCAGAGGAGGUAGGCUUCGGUGGCGCGAUAGCGCCAACGUCCUCAACCUCCAAUGCAUCCCACCACAUGAUGAUGCCUGAAGAGCCUUGGUUUUUUG [G10A C49U] | -0.363 |
| GACCAAUCUACCCUCAGAGCUCGAGAACAUCUUCGGAUGCUGAGGAGGCAGGUUUCGGUGGCGCGAUAGCGCCAACGGCCUCAACCUCAAAUGCAUCCCACCACUUGAUGAUGCCUGAAUAGCCUUGGUUUUUUG [G10A A41U C53U U78G C89A A105U G120U] | -5.97 |
